Test results taken from the supplement of paper PMC10126150.
± gives the standard deviation of the averaged measurements.

Tested on: ATP
Assay: switch fluorescence ratio, 500 uM ATP over buffer (Cy3 cluster intensity, sum of 5 cycles each) (fold (ratio)); higher = stronger signal-on switching upon ATP binding; sequences stand for … in TCGTCGGCAGCGTCAGATGTGTATAAGAGACAGTTTTTTTTTTTTTTTTTTTTTTTTT…TC
Settings: aptamer strand: ATP DNA aptamer (quencher-CACCTGGGGGAGTATTGCGGAGGAAGG + anchor), 100 nM annealed; ATP concentration: 500 uM
Method in brief: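 The quencher-labelled ATP aptamer, at 100 nM, was annealed to Cy3-labelled switching-strand clusters on a modified Illumina MiSeq flow-cell. The clusters were imaged in selection buffer, then after 15 min with 500 uM ATP at 22 °C, and this buffer/ATP cycle ran five times with NaOH stripping and re-annealing between runs. Per-cluster fluorescence ratios, summed target-cycle over summed buffer-cycle Cy3 intensity, were averaged per switch-domain sequence. Clusters outside 100-1000 RFU were excluded.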
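Note: ATP exposure 15 min at 22 °C before imaging.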

| Sequence | switch fluorescence ratio |
| --- | --- |
| GGAAGTCGGT | 0.968 ± 0.022 |
| GGAAGTCGTT | 0.994 ± 0.016 |
| GGAAGTTACA | 1.06 ± 0.016 |
| GGAATAATTT | 1.51 ± 0.73 |
| GGAATAGGAG | 1.037 ± 0.0095 |
| GGAATAGTAG | 1.003 ± 0.0065 |
| GGAATCAAGG | 1.02 ± 0.035 |
| GGAATCCGTA | 1.05 ± 0.046 |
| GGAATCTAGT | 0.999 ± 0.018 |
| GGAATGGGCG | 1.02 ± 0.042 |
| GGAATGGGTC | 0.9736 ± 0.0087 |
| GGAATGGTCG | 0.977 ± 0.13 |
| GGAATGTGCG | 0.9794 ± 0.0042 |
| GGAATGTTAG | 0.986 ± 0.012 |
| GGAATTACTG | 1.04 ± 0.033 |
| GGAATTGGGC | 1.03 ± 0.022 |
| GGAATTTCTG | 0.945 ± 0.014 |
| GGACAATTTT | 0.977 ± 0.0015 |
| GGACACTACC | 1.25 ± 0.036 |
| GGACAGAGTT | 0.9801 ± 0.0013 |
| GGACATTTAG | 1.03 ± 0.017 |
| GGACCATGAC | 1.14 ± 0.0075 |
| GGACCCAATG | 0.986 ± 0.011 |
| GGACCGCCTG | 1.01 ± 0.011 |
| GGACCTGGCG | 1.08 ± 0.15 |

| Sequence | switch fluorescence ratio |
| --- | --- |
| GGACGGGGGA | 1.02 ± 0.054 |
| GGACGTGTTG | 0.983 ± 0.033 |
| GGACTAGAGC | 1.01 ± 0.069 |
| GGACTAGGGA | 1.01 ± 0.018 |
| GGACTAGGTG | 1.16 ± 0.044 |
| GGACTCCCGG | 0.99 ± 0.011 |
| GGACTCGGGG | 1.04 ± 0.043 |
| GGACTGGAGC | 0.9905 ± 0.0021 |
| GGACTGGATG | 1 ± 0.031 |
| GGACTTAGGG | 0.9839 ± 0.0075 |
| GGACTTCTGG | 0.998 ± 0.041 |
| GGACTTGGTC | 0.972 ± 0.019 |
| GGAGAACCCT | 1.07 ± 0.038 |
| GGAGACATGT | 1.006 ± 0.0022 |
| GGAGACCGCT | 1.02 ± 0.034 |
| GGAGAGGGGT | 0.99 ± 0.035 |
| GGAGATAGGG | 1.03 ± 0.017 |
| GGAGATGCGG | 1.02 ± 0.011 |
| GGAGATTGCA | 1.058 ± 0.0089 |
| GGAGCCGGGC | 1.01 ± 0.013 |
| GGAGCGGGGT | 1.03 ± 0.019 |
| GGAGCTGTCG | 0.9774 ± 0.0094 |
| GGAGCTTTGG | 0.998 ± 0.035 |
| GGAGGAACAT | 1.02 ± 0.016 |
| GGAGGAAGTA | 1.03 ± 0.044 |

| Sequence | switch fluorescence ratio |
| --- | --- |
| GGAGGAAGTC | 0.975 ± 0.0024 |
| GGAGGACTTT | 0.9826 ± 0.0028 |
| GGAGGAGGCA | 0.997 ± 0.033 |
| GGAGGAGGTG | 1.02 ± 0.065 |
| GGAGGATACG | 1.02 ± 0.025 |
| GGAGGATGCT | 0.948 ± 0.053 |
| GGAGGGCTTT | 0.956 ± 0.064 |
| GGAGGGGCGG | 1.01 ± 0.043 |
| GGAGGGGGGG | 1.02 ± 0.042 |
| GGAGGGGTTA | 0.978 ± 0.015 |
| GGAGGGTTGT | 0.979 ± 0.04 |
| GGAGGGTTTT | 1.01 ± 0.035 |
| GGAGGTAGGG | 0.99915 ± 0.00057 |
| GGAGGTTGTG | 0.987 ± 0.017 |
| GGAGTAACAT | 1.04 ± 0.012 |
| GGAGTCATAC | 1.63 ± 0.035 |
| GGAGTTAATC | 1.04 ± 0.037 |
| GGAGTTAATT | 1.02 ± 0.013 |
| GGAGTTCCAG | 0.978 ± 0.048 |
| GGAGTTGGG | 0.968 ± 0.012 |
| GGAGTTTGGT | 1.01 ± 0.056 |
| GGATAACTCT | 1.01 ± 0.015 |
| GGATAAGGAA | 0.9698 ± 0.0076 |
| GGATAAGGCC | 1 ± 0.012 |
| GGATACGGGC | 1.02 ± 0.079 |

| Sequence | switch fluorescence ratio |
| --- | --- |
| GGATAGAGAA | 0.9789 ± 0.008 |
| GGATAGAGCT | 1 ± 0.034 |
| GGATAGAGTA | 1.01 ± 0.0075 |
| GGATAGGGCG | 0.946 ± 0.1 |
| GGATATGGGG | 0.99 ± 0.012 |
| GGATATTGCT | 0.949 ± 0.043 |
| GGATCCAAAT | 0.947 ± 0.017 |
| GGATCGAAGG | 0.96 ± 0.039 |
| GGATCGGGCG | 0.973 ± 0.051 |
| GGATCGTTGA | 0.977 ± 0.019 |
| GGATCTACCG | 1.01 ± 0.032 |
| GGATCTTTGA | 0.989 ± 0.027 |
| GGATGATGA | 1.01 ± 0.061 |
| GGATGATGGT | 0.985 ± 0.037 |
| GGATGCGGGT | 1 ± 0.03 |
| GGATGGAAGG | 0.963 ± 0.033 |
| GGATGGACAG | 1 ± 0.01 |
| GGATGGATGG | 0.993 ± 0.082 |
| GGATGGCTTC | 0.9987 ± 0.0023 |
| GGATGGGCTG | 1 ± 0.094 |
| GGATGGGGGG | 0.986 ± 0.016 |
| GGATGGGGGT | 0.9972 ± 0.0097 |
| GGATGGGGTT | 1 ± 0.018 |
| GGATGGGTGG | 0.99 ± 0.025 |
| GGATGGTGGA | 0.9966 ± 0.0093 |
